From paper PMC4695161, “Multifaceted interactions and regulation between antizyme and its interacting proteins cyclin D1, ornithine decarboxylase and antizyme inhibitor” (Oncotarget, 2015)

B3: human antizyme (AZ), wild type (natural protein)
chain: not shown
notes: antizyme (AZ), human; Natural AZ needs a +1 frameshift for translation; also called AZWT; full-length AZ; source: E. coli JM109 (pQE30), purified (Ni-NTA)

Experiments:
Conditions in all cases: both partners purified
[1] = biological target: B3; assay: AUC; sedimentation velocity, size distribution of mixtures at molar ratio AZ/CCND1 of 1; 30 mM Tris-HCl pH 7.4, 50 mM NaCl, 20°C; no constant fitted
human cyclin D1 (CCND1) = biological target: T1, human cyclin D1 (CCND1) (human, UniProt P24385 1-295); assay: AUC; sedimentation velocity; AZ or AZ peptide at a fixed concentration, three concentrations of CCND1; 30 mM Tris-HCl pH 7.4, 50 mM NaCl; global fit (SEDPHAT) to A+B↔AB hetero-association
T1 construct: cyclin D1 (CCND1), human; source: E. coli JM109 (pQE30), purified (Ni-NTA)
T1 sequence (P24385 whole entry): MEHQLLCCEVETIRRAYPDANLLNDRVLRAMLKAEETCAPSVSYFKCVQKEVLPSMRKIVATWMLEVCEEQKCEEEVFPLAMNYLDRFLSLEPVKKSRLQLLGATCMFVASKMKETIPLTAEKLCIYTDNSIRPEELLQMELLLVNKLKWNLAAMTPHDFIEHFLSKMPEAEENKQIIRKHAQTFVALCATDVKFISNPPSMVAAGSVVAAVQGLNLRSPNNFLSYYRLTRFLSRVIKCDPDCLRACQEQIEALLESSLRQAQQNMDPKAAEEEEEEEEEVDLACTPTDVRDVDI

[2] = biological target: T2, pre-formed AZ-CCND1 complex (human, UniProt P54368 1-228; P24385 1-295); assay: AUC; sedimentation velocity; AZ pre-incubated 1 hour with ODC (or CCND1) at molar ratio 1, then the third protein (CCND1 or ODC) at varied concentration; 30 mM Tris-HCl pH 7.4, 50 mM NaCl, 20°C
T2 construct: antizyme (AZ), human, as m1; cyclin D1 (CCND1), human, as m2; Molar ratio AZ/CCND1 fixed at 1; also called CCND1-AZ complex; source: AZ pre-incubated with CCND1 for 1 hour (purified recombinant proteins)
T2 sequence (P54368 whole entry, chain 1 of 2): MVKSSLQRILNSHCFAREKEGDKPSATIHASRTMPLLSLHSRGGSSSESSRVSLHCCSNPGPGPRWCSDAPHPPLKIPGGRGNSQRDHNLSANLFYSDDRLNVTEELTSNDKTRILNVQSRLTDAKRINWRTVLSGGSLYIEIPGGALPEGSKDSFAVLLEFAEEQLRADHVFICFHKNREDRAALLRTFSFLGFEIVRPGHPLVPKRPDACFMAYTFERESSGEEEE
T2 sequence (P24385 whole entry, chain 2 of 2): as the sequence (P24385 whole entry) above

B1: N-terminal CCND1 peptide CCND1(21-154) (domain or fragment, human, UniProt P24385 21-154, looked up)
chain: NLLNDRVLRAMLKAEETCAPSVSYFKCVQKEVLPSMRKIVATWMLEVCEEQKCEEEVFPLAMNYLDRFLSLEPVKKSRLQLLGATCMFVASKMKETIPLTAEKLCIYTDNSIRPEELLQMELLLVNKLKWNLAA
notes: source: truncated by deletion mutagenesis of the human CCND1 plasmid
binding result [1]: binds

B2: N-terminal AZ peptide AZ(34-124) (domain or fragment)
chain: not shown
notes: also called AZ N-terminal peptide; source: truncated by deletion mutagenesis of the human AZ plasmid
Kd (human cyclin D1 (CCND1)): 0.87 ± 0.01 µM

B3
Kd (human cyclin D1 (CCND1)): 0.81 ± 0.02 µM

B4: human ornithine decarboxylase (ODC) (enzyme, UniProt P11926 1-461, looked up)
chain: MNNFGNEEFDCHFLDEGFTAKDILDQKINEVSSSDDKDAFYVADLGDILKKHLRWLKALPRVTPFYAVKCNDSKAIVKTLAATGTGFDCASKTEIQLVQSLGVPPERIIYANPCKQVSQIKYAANNGVQMMTFDSEVELMKVARAHPKAKLVLRIATDDSKAVCRLSVKFGATLRTSRLLLERAKELNIDVVGVSFHVGSGCTDPETFVQAISDARCVFDMGAEVGFSMYLLDIGGGFPGSEDVKLKFEEITGVINPALDKYFPSDSGVRIIAEPGRYYVASAFTLAVNIIAKKIVLKEQTGSDDEDESSEQTFMYYVNDGVYGSFNCILYDHAHVKPLLQKRPKPDEKYYSSSIWGPTCDGLDRIVERCDLPEMHVGDWMLFENMGAYTVAAASTFNGFQRPTIYYVMSGPAWQLMQQFQNPDFPPEVEEQDASTLPVSCAWESGMKRHRAACASASINV
notes: ornithine decarboxylase (ODC), human; source: purified recombinant; expression not described
Kd [2]: 1.26 ± 0.02 µM
